Columns and labels:
Format in all cases: cell-based, E. coli
Formaldehyde = test: HACS screening, formaldehyde-formyl-CoA condensation in vivo (resting cells), glycolate; details: 2.5 mM formaldehyde and 20 mM formate, 0.5 hours
From the text: To implement the C1 elongation pathway for glycolate production in vivo, we engineered vectors to independently control expression of various HACS candidates and the acyl-CoA transferase from Clostridium aminobutyricum (CaAbfT), with HACS under control of the IPTG-inducible T7 promoter in pETDuet-1 and CaAbfT under control of a cumate-inducible T5 promoter in pCDFDuet-1 (FIG. 14C). As a host for these vectors, we used an engineered strain of E. coli based on MG1655(DE3) with knockouts for formaldehyde (ΔfrmA) and formate (ΔfdhF ΔfdnG ΔfdoG) oxidation as well as for glycolate utilization (ΔglcD), which we expected could compete or interfere with the analysis of our pathway (FIG. 14B).
In vivo product synthesis was conducted using M9 minimal media (6.78 g/L Na2HPO4, 3 g/L KH2PO4, 1 g/L NH4Cl, 0.5 g/L NaCl, 2 mM MgSO4, 100 μM CaCl2), and 15 μM thiamine-HCl) unless otherwise stated. […]
Cells from the above pre-cultures were then centrifuged (4000 rpm, 22° C.), washed with the above minimal media without any carbon source, and resuspended with 1 mL of above minimal media containing indicated amounts of carbon source. […] After incubation at 30° C. for 0.5 hours, the cells were pelleted by centrifugation and the media analyzed (FIG. 14A).

Isovaleraldehyde = test: HACS screening, isovaleraldehyde-C1 condensation (resting cells), leucic acid; details: 20 mM isovaleraldehyde and 20 mM formate, 3 hours
From the text: (§1) To implement the C1 elongation pathway for leucic acid production in vivo, we engineered vectors to independently control expression of various HACS candidates and the acyl-CoA transferase from Clostridium aminobutyricum (CaAbfT), with HACS under control of the IPTG-inducible T7 promoter in pCDFDuet-1 and CaAbfT under control of a cumate-inducible T5 promoter in pETDuet-1. As a host for these vectors, we used an engineered strain of E. coli based on MG1655(DE3) with knockouts for formaldehyde (ΔfrmA) and formate (ΔfdhF ΔfdnG ΔfdoG) oxidation as well as for glycolate utilization (ΔglcD).
(§2) In vivo product synthesis was conducted using M9 minimal media (6.78 g/L Na2HPO4, 3 g/L KH2PO4, 1 g/L NH4Cl, 0.5 g/L NaCl, 2 mM MgSO4, 100 μM CaCl2), and 15 μM thiamine-HCl) unless otherwise stated. Cells were initially grown in 96-deep well plates (USA Scientific, Ocala, FL) containing 0.5 mL of the above media further supplemented with 20 g/L glycerol, 10 g/L tryptone, and 5 g/L yeast extract. […]
(§3) Cells from the above pre-cultures were then centrifuged (4000 rpm, 22° C.), washed with the above minimal media without any carbon source, and resuspended with 1 mL of above minimal media containing indicated amounts of carbon source. […] After incubation at 30° C. for 3 hours, the cells were pelleted by centrifugation and the media was analyzed using HPLC.

Succinic semialdehyde = test: HACS screening, succinic semialdehyde-C1 condensation (resting cells), 2-hydroxyglutaric acid; details: 20 mM succinic semialdehyde and 20 mM formate, 3 hours
From the text: as §1, with “2-hydroxyglutaric” for “leucic”
as §2, §3

B1: RuHACL: Engineered 2-hydroxyphytanoyl-CoA lyase [Rhodospirillales bacterium URHD0017], SEQ ID NO: 1 (protein)
chain: MSEVDGATLIARSLKQQGIDHLFGVVGFPITAIAAAAQKEGVAYLGMRNEQSAAYAAAAYGYLTGRPGAAVVVTGPGVVHGLSGLANAQQNCWPMILIGGASETYRGGMGAFQEERQVLIASPFCKFAHGIESVARIPFYVEMATRNAIYGRPGATYLDMPDDIIRGTCETDKIAQAERVPEAPRSVAPAENVEAALDLLEKAQRPLVLLGKGMAWSRGEDEVRAFIERTQVPFVRSPMGKGVMPDDHPLSASAARTLALQQADVIFLMGARLNWIFHFGLPPRYAKDVKVIQLDIAPEEIGHNKPTEVALVGDGKAIMAQLNKALVNRQWFHPKDTPWRQALTKKAAENVATIKPQVDDDQGPAGYYRALRDVAAWMPKNAILSAEGANTMDIGLTQLASSNARSVLNAGTYGTMGVGLGQAIAAAVSDPSRPVIHLSGDSAIGFSGMEMETLVRYNLPVKIVVLNNGGIGPGMPEIPENPMFNLKPNALIYGARYDKVMEAFGGKGIFVKEPKDIRKALDEAMAFKGPALVNVVLSQGSTRKAQQFAWHS
modifications: Rhodospirillales bacterium URHD0017 engineered 2-hydroxyphytanoyl-CoA lyase
- Product flux, substrate Formaldehyde, product Glycolate (Formaldehyde): 44.5 μM/OD/h
- Product flux, substrate Isovaleraldehyde, product Leucic acid (Isovaleraldehyde): 12.5 μM/OD/h
- Product flux, substrate Succinic semialdehyde, product 2-hydroxyglutarate (Succinic semialdehyde): 15.2 μM/OD/h
